Data on two substances can be found in publication PMC5570900, “Exploiting a novel conformational switch to control innate immunity mediated by complement protein C3a” (Nature Communications, 2017).

Series [1] in a line: Rat plasma stability. The class given is in vitro ADME. The following applies: 37 °C. The protocol:
(§1) For plasma stability studies, C3a and experimental compounds (10 μL, 1 mM in DMSO) were added to neat rat plasma (190 μL) and heated to 37 °C in a circulating water bath. Aliquots (20 µL) were collected at time points (0, 2, 5 and 10 min for C3a; 0, 5, 15, 30, 60, 120 and 240 min for other test compounds) and added directly to MeCN/H2O (80 µL, 9:1). The samples were centrifuged at 13,000 g for 3 min before supernatants were isolated and analyzed for test compound degradation via LC-MS. For liver microsomal stability studies, commercially available rat liver microsomes from Life Technologies, GIBCO were used. In brief, microsomes stored at −80 °C were slowly defrosted on ice. Test compounds (183 μL, 1 μM in 100 mM phosphate buffer pH 7.4 containing 0.1 % DMSO) were added to microsomes (5 μL) and NADPH (2 µL, 20 mM). Test solutions were heated in a circulating water bath at 37 °C for 5 min before additional cofactor NADPH (10 μL, 20 mM) was added. Aliquots (20 μL) were taken at time points (0, 5, 15, 30 and 60 min from the second addition of NADPH). Aliquots were added to MeCN/H2O (80 μL, 9:1) and centrifuged at 13,000 g for 3 min. Supernatants were analyzed for test compound degradation by LC-MSMS. Concentrations were plotted as a function of time on a semi-logarithmic graph. Rat plasma and microsomal activity was confirmed by rapid degradation of SLIGRL-NH2 (t1/2 < 5 min) in a parallel experiment.

A short description of series [2]: Rat liver microsomal stability. The class given is in vitro ADME. To be noted: rat, liver microsomes, pH 7.4; parallel control experiment, 37 °C; read-out: t1/2 in rat liver microsomes. The procedure:
as §1

Series [3] deals with T1, C5aR (Homo sapiens, UniProt P21730).
T1 construct: endogenous in cells; host or cells: primary human monocyte-derived macrophages (HMDMs)
T1 sequence (P21730 1-350): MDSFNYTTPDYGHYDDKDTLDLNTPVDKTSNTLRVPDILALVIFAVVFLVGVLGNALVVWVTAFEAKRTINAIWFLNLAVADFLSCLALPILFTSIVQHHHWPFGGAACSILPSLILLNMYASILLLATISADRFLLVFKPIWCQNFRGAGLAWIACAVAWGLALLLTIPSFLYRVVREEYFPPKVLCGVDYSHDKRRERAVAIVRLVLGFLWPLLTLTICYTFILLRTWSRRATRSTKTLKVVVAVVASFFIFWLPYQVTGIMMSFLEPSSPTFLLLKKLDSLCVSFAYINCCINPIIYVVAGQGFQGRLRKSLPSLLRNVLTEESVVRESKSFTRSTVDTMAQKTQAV
Kind of series: [125I]-hC5a competition binding on HMDMs. The following applies: [125I]-hC5a 25 pM. The protocol: Receptor binding was performed by ligand competition with labelled 80 pM [^125I]-C3a or 25 pM [^125I]-C5a (2200 Ci/mmol; Perkin Elmer, Torrance, CA, USA) on HMDMs (1.2 × 10^6 cells/ml). HMDMs were treated with [^125I]-C3a or [^125I]-C5a ± various concentrations of unlabelled C3a/C5a or experimental ligands were diluted with assay buffer (50 mM Tris, 3 mM MgCl2, 0.1 mM CaCl2, 0.5% (w/v) BSA, pH 7.4) for 60 min at room temperature. Unbound [^125I]-C3a or [^125I]-C5a was removed by filtration through glass microfibre filter GF/B (Whatman Iner. Ltd, England) and washed three times with cold buffer (50 mM Tris-HCl pH 7.4). Bound [^125I]-C3a or [^125I]-C5a were assessed by scintillation counting on Microbeta counter. Specific binding was defined as the difference between total binding and nonspecific binding as determined in the presence of 1 μM unlabelled C3a or C5a[4].

The test system of series [4] is wild-type human HEK293 cells (C3aR−/−). Kind of series: Intracellular Ca2+ release in wild-type HEK293 cells. The class given is cell-based.
Series [5] deals with T2, C3aR (Homo sapiens, UniProt Q16581).
T2 sequence (Q16581 1-482): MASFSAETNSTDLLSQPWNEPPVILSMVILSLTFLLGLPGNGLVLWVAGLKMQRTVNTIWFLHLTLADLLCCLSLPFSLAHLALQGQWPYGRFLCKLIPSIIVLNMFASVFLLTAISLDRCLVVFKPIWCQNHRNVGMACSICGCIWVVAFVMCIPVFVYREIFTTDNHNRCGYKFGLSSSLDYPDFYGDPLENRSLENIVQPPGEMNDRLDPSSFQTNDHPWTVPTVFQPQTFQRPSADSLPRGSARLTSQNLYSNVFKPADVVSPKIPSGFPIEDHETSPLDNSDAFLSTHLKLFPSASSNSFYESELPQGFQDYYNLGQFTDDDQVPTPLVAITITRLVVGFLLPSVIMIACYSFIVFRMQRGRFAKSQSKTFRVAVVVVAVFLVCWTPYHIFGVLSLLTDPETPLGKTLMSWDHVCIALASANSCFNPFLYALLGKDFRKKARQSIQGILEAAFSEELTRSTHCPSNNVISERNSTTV
Kind of series: Histamine secretion in human LAD2 mast cells (agonist mode). Set-up: Concentration-dependent histamine secretion in human LAD2 mast cells; endogenous in cells; host or cells: LAD2 human mast cells. The series is classed as cell-based. The following applies: compound alone, 30 min, n ≥ 3, ± SEM. The procedure: LAD2 human mast cells (kindly provided by Dr Dean Metcalfe, National Institute of Allergy and Infectious Diseases, National Institute of Health) were cultured in StemPro®-34 Serum Free Media (Invitrogen, Australia) supplemented with StemPro®-34 nutrient, 100 U/mL penicillin, 100 μg/mL streptomycin, 2 mM GlutaMAX, and 100 ng/mL human stem cell factor (SCF). Cells were hemi-depleted weekly and were not allowed to grow beyond a density of 0.5 × 10^6/mL. This cell line was authenticated by expression of tryptase and histamine granules. For the histamine assay, 1 × 10^4 cells per well were seeded in StemPro®-34 SFM in 96-well plates for 30 min before any treatments. For agonist studies, the cells were treated with compounds prepared in media for 30 min. For antagonist studies, the cells were pre-treated with compounds prepared in SFM for 30 min before addition of C3aR agonists for another 30 min. Cells were centrifuged (500 g, 5 min, 4 °C) and cell-free supernatants were collected for measuring histamine. Histamine content was measured using the histamine EIA kit according to the manufacturer’s instructions (Abnova, Taiwan). The readings were recorded on a FLUOstar Optima (BMG LabTechnologies, Offenburg, Germany).

Series [6] concerns the target T2, C3aR. Kind of series: Intracellular Ca2+ release in human monocyte-derived macrophages (agonist mode). The class given is cell-based. More on the design: Concentration-dependent Ca^2+ release in human monocyte-derived macrophages (HMDMs); endogenous in cells; host or cells: primary human monocyte-derived macrophages (HMDMs). To be noted: HMDMs, n ≥ 3, ± SEM. The procedure: HMDMs were isolated using Ficoll-paque density centrifugation (GE Healthcare Bio-Science, Uppsala, Sweden) from buffy coat (of anonymous human donors) provided by the Australian Red Cross Blood Service, Brisbane. CD14^+ monocytes were positively selected using CD14 MicroBeads (Miltenyi Biotech, Auburn, USA)[40], [41]. CD14^+ monocytes were differentiated to HMDMs using 100 ng/mL of recombinant human macrophage colony-stimulating factor (PeptroTech, Rocky Hill, USA) for 7 days in Iscove’s modified Dulbecco’s media supplemented with 10% fetal bovine serum, penicillin (100 U/mL), streptomycin (100 µg/mL) and L-glutamine (2 mM). HMDMs were supplemented after 5 days with fresh medium containing 10 ng/ml macrophage colony-stimulating factor and collected by gentle scraping on day 7.
HMDMs were seeded to a 96-well clear-bottom black-wall assay plate at a density of 5 × 10^4 cells per well and allowed to adhere overnight. Prior to assay, cells were incubated with dye-loading buffer (Hank’s balance salt solution (HBSS) buffer, 4 μM Fluo-3 AM, 25 μl Pluronic acid F-127 and 1% fetal bovine serum) for 1 h at 37 °C. Cells were then washed once with assay buffer (HBSS supplemented with 2.5 mM probenecid and 20 mM HEPES, pH 7.4). Intracellular calcium release was monitored using a fluorescence imaging plate reader (excitation 495 nm, emission 520 nm). The percentage responses were plotted against logarithmic concentrations of each test compound[42].

For series [7], the target named is T2, C3aR. The series is described as follows: Intracellular Ca2+ release in HEK293 cells transfected with C3aR. The series is classed as cell-based. Set-up: Concentration-dependent Ca^2+ release in human monocyte-derived macrophages (HMDMs); endogenous in cells; host or cells: primary human monocyte-derived macrophages (HMDMs). The following applies: HEK293 cells transfected with C3aR (C3aR+/+), compound alone.

As to “H-SLIGRL-NH2 [SLIGRL-NH2, reference compound]”, the half-life at 50 µM in series [1] (rat, plasma (neat), parallel control experiment, read-out: t1/2 in rat plasma) was below 5 min. Also, in series [2], the half-life at 0.915 µM is below 5 min.
As to “hC3a: human complement protein C3a, 77 residue ~9 kDa helix bundle inflammatory protein”, in series [3], the “C5aR binding by competition with [125I]-hC5a” value is reported as “no binding”. Moreover, the “Intracellular Ca2+ release” value in series [4] is given as “did not induce Ca^2+ release”; in series [7], “did induce Ca^2+ release”. Further, the “Stability in rat plasma” value in series [1] (neat rat plasma, over 4 h (C3a up to 10 min)) was “degraded within minutes”. Further, the EC50 in series [5] worked out at 3 ± 1.5 nM; in series [6] it was 8 ± 2 nM.

As usually defined, the EC50 is the concentration that produces a half-maximal response. A lower EC50 goes with a more potent agent.
